Key:
Test in all cases: IEDB peptide-MHC binding, purified MHC/competitive/radioactivity; filed as Kd, often an IC50 or EC50 that approximates it; ≥ and ≤ were set here for values at or beyond the usual limits of such assays
[1] = biological target: HLA-A*11:01
[2] = biological target: HLA-A*68:01
[3] = biological target: HLA-A*31:01
[4] = biological target: HLA-A*33:01
[5] = biological target: HLA-A*03:01
[6] = biological target: HLA-A*02:03
[7] = biological target: HLA-A*02:06
[8] = biological target: HLA-A*02:02
[9] = source organism: Vaccinia virus WR
[10] = source organism: SARS coronavirus Tor2
[11] = source organism: Mammarenavirus juninense
[12] = source organism: Mammarenavirus machupoense
[13] = source organism: Lymphocytic choriomeningitis virus (strain Traub)
[14] = source organism: Mammarenavirus guanaritoense

## RSIAMLKSK
[1]; [9]
  Kd: 0.00311 µM
[2]; [9]
  Kd: 0.637 µM
[3]; [9]
  Kd: 1.5 µM
[4]; [9]
  Kd: ≥ 77.7 µM
[5]; [9]
  Kd: 0.216 µM

## YTEAAAATCA
[6]; [9]
  Kd: 16.1 µM
[7]; [9]
  Kd: 7.15 µM
[8]; [9]
  Kd: ≥ 36.5 µM

## FLMSFTILCL
[6]; [10]
  Kd: 0.213 µM
[7]; [10]
  Kd: 0.0744 µM
[8]; [10]
  Kd: 0.000821 µM

## NVKHTSVSAK
[1]; [9]
  Kd: 3.35 µM
[2]; [9]
  Kd: 0.502 µM
[3]; [9]
  Kd: 10.3 µM
[4]; [9]
  Kd: 8.28 µM
[5]; [9]
  Kd: 0.519 µM

## ISYCRAFIY
[1]; [9]
  Kd: 0.000358 µM
[2]; [9]
  Kd: 0.00135 µM
[3]; [9]
  Kd: 0.232 µM
[4]; [9]
  Kd: 3.57 µM
[5]; [9]
  Kd: 0.00144 µM

## AISSRVDRY
[1]; [9]
  Kd: 0.164 µM
[2]; [9]
  Kd: 4.74 µM
[3]; [9]
  Kd: 18.7 µM
[4]; [9]
  Kd: ≥ 77.7 µM
[5]; [9]
  Kd: 5.01 µM

## KASTISWMMK
[1]; [9]
  Kd: 0.00549 µM
[2]; [9]
  Kd: 0.134 µM
[3]; [9]
  Kd: 0.088 µM
[4]; [9]
  Kd: ≥ 50.4 µM
[5]; [9]
  Kd: 0.045 µM

## GALHLYFDK
[1]; [10]
  Kd: 0.000928 µM
[2]; [10]
  Kd: 4.97 µM
[3]; [10]
  Kd: 0.143 µM
[4]; [10]
  Kd: 15.4 µM
[5]; [10]
  Kd: 0.486 µM

## AALDGTFQRK
[1]; [9]
  Kd: 0.00805 µM
[2]; [9]
  Kd: 8.29 µM
[3]; [9]
  Kd: 4.28 µM
[4]; [9]
  Kd: ≥ 70 µM
[5]; [9]
  Kd: 0.0494 µM

## TGINENYAK
[1]; [11]
  Kd: 1.53 µM
[2]; [11]
  Kd: 0.998 µM
[3]; [11]
  Kd: ≥ 53.4 µM
[4]; [11]
  Kd: ≥ 77.7 µM
[5]; [11]
  Kd: ≥ 78 µM

## FVYVSVMNFI
[6]; [9]
  Kd: 0.0178 µM
[7]; [9]
  Kd: 0.0075 µM
[8]; [9]
  Kd: 0.0765 µM

## TLVPVLEKKV
[6]; [9]
  Kd: 0.1 µM
[7]; [9]
  Kd: 0.498 µM
[8]; [9]
  Kd: 0.112 µM

## KSTELIRRVR
[1]; [9]
  Kd: ≥ 20.2 µM
[2]; [9]
  Kd: 0.901 µM
[3]; [9]
  Kd: 0.015 µM
[4]; [9]
  Kd: 1.93 µM
[5]; [9]
  Kd: ≥ 70.1 µM

## VIADYNYKL
[6]; [10]
  Kd: 0.115 µM
[7]; [10]
  Kd: 0.0691 µM
[8]; [10]
  Kd: 0.000477 µM

## VQFSILNNPV
[6]; [9]
  Kd: 0.369 µM
[7]; [9]
  Kd: 0.186 µM
[8]; [9]
  Kd: 0.131 µM

## GTDDEVIER
[1]; [9]
  Kd: 0.369 µM
[2]; [9]
  Kd: 0.634 µM
[3]; [9]
  Kd: 2.23 µM
[4]; [9]
  Kd: 1.17 µM
[5]; [9]
  Kd: ≥ 63.5 µM

## ETMYLTMKAI
[6]; [9]
  Kd: 0.0252 µM
[7]; [9]
  Kd: 3.58 µM
[8]; [9]
  Kd: 1.32 µM

## MQVFFGYFA
[6]; [10]
  Kd: 0.193 µM
[7]; [10]
  Kd: 0.00104 µM
[8]; [10]
  Kd: 0.00996 µM

## ETQSGALEVL
[6]; [9]
  Kd: 14.5 µM
[7]; [9]
  Kd: 1.58 µM
[8]; [9]
  Kd: 5.31 µM

## TLDTMDDMK
[1]; [9]
  Kd: 0.466 µM
[2]; [9]
  Kd: 0.373 µM
[3]; [9]
  Kd: ≥ 77.9 µM
[4]; [9]
  Kd: ≥ 77.7 µM
[5]; [9]
  Kd: 11.8 µM

## YAVLSEYETM
[6]; [9]
  Kd: 9.63 µM
[7]; [9]
  Kd: 1.21 µM
[8]; [9]
  Kd: 0.157 µM

## LQGPPGTGK
[1]; [10]
  Kd: 0.0401 µM
[2]; [10]
  Kd: 10.9 µM
[3]; [10]
  Kd: 1.26 µM
[4]; [10]
  Kd: ≥ 77.7 µM
[5]; [10]
  Kd: 0.459 µM

## STAWLCALGK
[1]; [10]
  Kd: 0.00035 µM
[2]; [10]
  Kd: 0.0048 µM
[3]; [10]
  Kd: 0.271 µM
[4]; [10]
  Kd: 9.43 µM
[5]; [10]
  Kd: 0.0216 µM

## GTSAAAYFV
[6]; [10]
  Kd: 0.202 µM
[7]; [10]
  Kd: 0.0905 µM
[8]; [10]
  Kd: 0.0352 µM

## LTHGADPNA
[6]; [9]
  Kd: 10.5 µM
[7]; [9]
  Kd: ≥ 29.4 µM
[8]; [9]
  Kd: 19.4 µM

## SNIQFNISK
[1]; [12]
  Kd: 0.0122 µM
[2]; [12]
  Kd: 0.015 µM
[3]; [12]
  Kd: 1.74 µM
[4]; [12]
  Kd: 10.9 µM
[5]; [12]
  Kd: 4.91 µM

## TSLAIKNYYR
[1]; [9]
  Kd: 0.000933 µM
[2]; [9]
  Kd: 0.0058 µM
[3]; [9]
  Kd: 0.46 µM
[4]; [9]
  Kd: 0.258 µM
[5]; [9]
  Kd: 0.118 µM

## IAQYKCVTIK
[1]; [9]
  Kd: 0.773 µM
[2]; [9]
  Kd: 5.86 µM
[3]; [9]
  Kd: 5.88 µM
[4]; [9]
  Kd: ≥ 24.1 µM
[5]; [9]
  Kd: 0.0291 µM

## MAFILGIIIT
[6]; [9]
  Kd: 2.83 µM
[7]; [9]
  Kd: 10.3 µM
[8]; [9]
  Kd: 4.68 µM

## YVMCTGSFKL
[7]; source organism: Dengue virus 1 Brazil/97-11/1997
  Kd: 0.0188 µM

## LMAMDLGEL
[6]; source organism: Dengue virus 2 Peru/IQT2913/1996
  Kd: 0.00678 µM

## MLVYCFLGY
[1]; [10]
  Kd: 0.12 µM
[2]; [10]
  Kd: 1.14 µM
[3]; [10]
  Kd: 0.907 µM
[4]; [10]
  Kd: 7.38 µM
[5]; [10]
  Kd: 0.136 µM

## AIFTYTGGY
[1]; [9]
  Kd: 0.282 µM
[2]; [9]
  Kd: 8.38 µM
[3]; [9]
  Kd: 7.16 µM
[4]; [9]
  Kd: ≥ 77.7 µM
[5]; [9]
  Kd: 0.287 µM

## VLCVKKFYK
[1]; [9]
  Kd: 0.00882 µM
[2]; [9]
  Kd: 0.344 µM
[3]; [9]
  Kd: 0.00132 µM
[4]; [9]
  Kd: 0.162 µM
[5]; [9]
  Kd: 0.0252 µM

## KSGGLSSGFY
[1]; [9]
  Kd: 5.21 µM
[2]; [9]
  Kd: ≥ 70.2 µM
[3]; [9]
  Kd: ≥ 70 µM
[4]; [9]
  Kd: ≥ 70 µM
[5]; [9]
  Kd: 2.57 µM

## KCHDHYLCRH
[1]; [13]
  Kd: ≥ 69.7 µM
[2]; [13]
  Kd: ≥ 70.1 µM
[3]; [13]
  Kd: 9.65 µM
[4]; [13]
  Kd: ≥ 70 µM
[5]; [13]
  Kd: ≥ 24.8 µM

## RSKIEVGIRH
[1]; [14]
  Kd: ≥ 29 µM
[2]; [14]
  Kd: ≥ 22.2 µM
[3]; [14]
  Kd: 1.63 µM
[4]; [14]
  Kd: ≥ 70 µM
[5]; [14]
  Kd: 13.7 µM

Reference: the Immune Epitope Database (IEDB)
